In the series the test system is recombinant Histone H3.

“human coactivator-associated arginine methyltransferase 1 (hCARM1), full-length, purified from baculovirus infected insect cells”: the “methylation of Histone H3 (in vitro methylation assay, SDS-PAGE and film)” value is “hCARM1 methylates Histone H3 efficiently”.

For the origin of these results see US20050196753.
